Measured values as given in patent US10501502B2, “Allophycocyanin alpha-subunit evolved labeling proteins (smURFPs)” (The Regents of the University of California, priority 2016, dated 2019).
Substitutions are numbered along the chain they refer to.

Tests used:
[1] = In vitro photobleaching of bubbles of purified FP or Cy5 in mineral oil; type: physicochemical
Experimental: (§1) EX and EM spectra were obtained using SPEX Fluorolog fluorometer (Horiba). Absorbance spectra were obtained using UV-VIS Spectrophotometer Cary Eclipse (Varian) or UV-2700 (Shimadzu). Quantum yield was determined relative to Cy5. Incorporation rates of BV on 0.5 μM smURFP was performed by addition of smURFP to PBS alone or with 20% fetal bovine serum (FBS) and mixed by pipetting in a quartz cuvette. Chromophore was added last, mixed by pipetting, and fluorescence was recorded using SPEX Fluorolog fluorometer (Horiba). Photobleaching was characterized on bubbles of purified FP or Cy5 within mineral oil using light from a 150 W xenon arc lamp with 100% light through EX/EM=628(40)/680(30) nm for smURFP, TDsmURFP, and Cy5 or EX/EM=665 (45)/725 (50) nm for IFP 1.4 focused with a 40×, 1.2 numerical aperture C-Apochromat oil-immersion lens on a Zeiss Axiovert 200M inverted microscope. Photobleaching times were normalized to reflect an initial illumination intensity producing 1,000 photons per fluorescent molecule per second as previously described^37.

[2] = FP purification and fluorescence characterization in vitro (spectra, extinction coefficient, quantum yield); type: physicochemical
Experimental: FP genes were expressed on a pBAD vector (Life Technologies) with a polyhistidine tag on the C terminus, cells were lysed with B-PER (Thermo Scientific), and purified using Ni-NTA (Qiagen) puri-fication. PCB (HO-1+PcyA) and BV (HO-1) incorporation in Escherichia coli was performed simultaneously during constitu-tively active FP expression. Extinction coefficient was determined by PCB or BV absorbance as described35,36 (Table 3, smURFP+BV and TDsmURFP+BV, and Table 2) or calculated for the apoproteins by determining the protein concentration by the BCA protein assay (Pierce), and a specific chromo-phore concentration was added (specified in the Purification of FP lacking chromophore and in vitro chromophore incorporation section) to get 1 and 2 chromophore species (Table 5, not including (Escherichia coli)). When FP chromophore (PCB or BV) was expressed in Escherichia coli, the PCB and BV Q band had absorbance that overlapped with detection of BCA or Bradford assay of 562 nm and 592 nm, respectively. We used the previously published protocols35,36, where there was no change of the BV absorbance at 390 nm when free in solution or attached to the FP. smURFP+BV denaturation with 1 M urea caused no change in the BV absorbance at 390 nm, but the Q band was reduced ˜20-fold. Therefore, the extinction coefficient of BV at 390 nm was used to calculate the concentration of holoprotein (FP+PCB or BV) concentration.
as §1
HO-1 was removed by digesting the pBAD vector (Life Technology) with MscI and PmeI (NEB). smURFP and TDsmURFP were expressed and purified as described above. No chromophore was present on smURFP and TDsmURFP (confirmed by UV, fluorescence imaging, and MS). For predominant fluorescent species+2 chromophores, a ten-fold excess of chromophore was added to smURFP and TDsmURFP. For predominant fluorescent species+1 chromophore, a quarter concentration of chromophore was added to smURFP and TDsmURFP. Chromophore was added in PBS+10% FBS at 37° C. overnight. smURFP+chromophore and TDsmURFP+chromophore were purified using NiNTA (Qiagen) to remove excess or noncovalently attached chromophore.

[3] = Native PAGE quaternary structure / stoichiometry; type: physicochemical
Experimental: Native PAGE was run using NativePAGE Novex Bis-Tris Gel System (Life Technologies) on Native PAGE 4-16% Bis-Tris protein gels (Life Technologies). SDS-denaturing PAGE was run using NuPAGE MOPS SDS running buffer (Life Technologies) and NuPAGE Novex 4-12% Bis-Tris gels (Life Technologies). Precision Plus Protein Dual Color Standards (Bio-Rad) were used as an MW ladder. Zinc blot was performed after running the SDS-PAGE gel using the described method^44. Fluorescence was imaged using a BioSpectrum AC Imaging System (UVP) with EX/EM=535(45)/605(70) nm for tdTomato, EX/EM=650(13)/690(50) nm for smURFP and TDsmURFP, EX/EM=685(40)/710LP nm for IFP1.4 and BV+zinc.

Escherichia coli = assay: Fluorescence of FPs expressed in Escherichia coli; type: cell-based; conditions: for fold brighter than R4-1: expressed in E. coli with HO-1
Experimental: TeAPCα gene (codons optimized for Escherichia coli) was made by GenScript. Mutations were placed by random mutagenesis using GeneMorphII Random Mutagenesis Kit (Agilent Technologies). Screens for mutants that fluoresce with PCB or BV were performed by subcloning into a pBAD vector (Life Technologies) that expressed cyanobacteria Synechocystis HO-1 and Synechocystis PcyA genes for PCB production and Synechocystis HO-1 only for BV production, as previously described^34. Libraries were expressed in TOP 10 Electrocompetent Escherichia coli cells (Life Technologies) with addition of 0.2% arabinose to LB agar plates (FPs were constitutively expressed in Escherichia coli). Fluorescence was imaged on plates using a BioSpectrum AC Imaging System (UVP) with EX/EM=628(40)/690(50) nm for FPs+PCB, EX/EM=685(40)/710LP nm for rounds 4 and 5 FPs+BV, and EX/EM=650(13)/690(50) nm for Cy5-like FPs+BV (rounds 6-12). At round 6, 5-10 of the brightest colonies on each plate were combined in LB+0.2% arabinose, grown ˜18 h, mixture of plasmid DNA was purified, and TOP10 cells were transformed and plated on LB agar plates+0.2% arabinose. Fluorescence was screened on plates (as described above), 10-20 of the brightest colonies were screened in liquid culture fluorescence (FIG. 7a-e), plasmid DNA was purified, and DNA was sequenced. The plasmid DNA of 2-3 of the brightest FPs was chosen for mutagenesis for the subsequent round. When choosing DNA for subsequent mutagenesis rounds, genes with increased and/or novel silent DNA mutations were chosen over other DNA that had the same DNA and/or protein sequence of the previous round. Site-specific mutagenesis was performed using QuikChange Lightning Mutagenesis Kit (Agilent Technologies) to create smURFP (C4S mutation) and smURFP C52S.

Q: With Cy5 [reference compound] as the molecule, how does the “in vitro photobleaching t50%” value ([1]; excitation intensity yielding 1,000 photons per s) read?
A: 22 s

Q: And the “In vitro photostability t50%” value ([1]; time to bleach 50% from an initial emission rate of 1,000 photons per s)?
A: 22 s

Q: And the Emission Maximum ([2]; Table 5)?
A: 670 nm

Q: What about the Excitation Maximum ([2]; Table 5) of the same molecule?
A: 649 nm

Q: What about the Extinction Coefficient ([2]; Table 5) of the same molecule?
A: 250,000 ^ m^−1cm^−1/chromophore

Q: What about the Quantum Yield ([2]; Table 5) of the same molecule?
A: 25%

Q: And the “molecular brightness relative to eGFP” value ([2]; Table 5)?
A: 186%

B1: R4-1: evolved APCα FP, SEQ ID NO: 5, with BV (protein)
chain: MKTGEQRVKIATLLSENEKKIVDKASQDLWRRRPDFIAPGGIAFSQRERALCLRDYRWYLHLITFCLLAGDKDPIESIGLIGIREMYNSLGVPVPGMMESIRCLKEASLSLLDEEDAKETAPYFDYIIKAMS
modifications: biliverdin chromophore; smRUFP Variant Polypeptide
Q: Which results are given for B1?
A: quaternary structure on native gel [3]: tetramer; extinction coefficient (EC) [2]: 93,000 M^−1cm^−1; quantum yield (QY) [2]: 9.0%; Molecular Brightnes Relative to smURFP ([2]; Table 4): 26%; Emission Maximum ([2]; evolved APCα FPs, Table 4): 674 nm; Excitation Maximum ([2]; evolved APCα FPs, Table 4): 647 nm; Extinction Coefficient ([2]; evolved APCα FPs, Table 4): 93,000 M^−1 cm^−1; Quantum Yield ([2]; evolved APCα FPs, Table 4): 9.0%

B2: R7-7: evolved APCα FP, SEQ ID NO: 8, with BV (protein)
chain: B1 chain with G4C, E18K, R33H, F36L, R57G, D73G, M131I
modifications: biliverdin chromophore; smRUFP Variant Polypeptide
Q: Which results are given for B2?
A: fold brighter than R4-1 (Escherichia coli): 1.3 fold; extinction coefficient (EC) [2]: 250,000 M^−1cm^−1; quantum yield (QY) [2]: 16%; Molecular Brightnes Relative to smURFP ([2]; Table 4): 123%; Emission Maximum ([2]; evolved APCα FPs, Table 4): 676 nm; Excitation Maximum ([2]; evolved APCα FPs, Table 4): 648 nm; Extinction Coefficient ([2]; evolved APCα FPs, Table 4): 250,000 M^−1 cm^−1; Quantum Yield ([2]; evolved APCα FPs, Table 4): 16%

B3: R8-9: evolved APCα FP, SEQ ID NO: 10, with BV (protein)
chain: B1 chain with G4C, K9N, E18K, F36L, E48D, R57G, D73G, G96D
modifications: biliverdin chromophore; smRUFP Variant Polypeptide
Q: Which “fold brighter than R4-1” value (Escherichia coli) does the source give for B3 here?
A: 5.7 fold

Q: And the “extinction coefficient (EC)” value [2]?
A: 175,000 M^−1cm^−1

Q: What about the “quantum yield (QY)” value [2] of the same molecule?
A: 12%

Q: What about the “Molecular Brightnes Relative to smURFP” value ([2]; Table 4) of the same molecule?
A: 65%

Q: And the “Emission Maximum” value ([2]; evolved APCα FPs, Table 4)?
A: 672 nm

Q: And the “Excitation Maximum” value ([2]; evolved APCα FPs, Table 4)?
A: 644 nm

Q: And the “Extinction Coefficient” value ([2]; evolved APCα FPs, Table 4)?
A: 175,000 M^−1 cm^−1

Q: And the “Quantum Yield” value ([2]; evolved APCα FPs, Table 4)?
A: 12%

B4: R8-8: evolved APCα FP, SEQ ID NO: 9, with BV (protein)
chain: B1 chain with G4C, E18K, R33H, F36L, E48D, R57G, D73G, G96A, K118N
modifications: biliverdin chromophore; smRUFP Variant Polypeptide
Q: For B4, which “fold brighter than R4-1” value (Escherichia coli) is on record?
A: 5.8 fold

Q: And the “extinction coefficient (EC)” value [2]?
A: 260,000 M^−1cm^−1

Q: What about the “quantum yield (QY)” value [2] of the same molecule?
A: 13%

Q: And the “Molecular Brightnes Relative to smURFP” value ([2]; Table 4)?
A: 104%

Q: And the “Emission Maximum” value ([2]; evolved APCα FPs, Table 4)?
A: 672 nm

Q: What about the “Excitation Maximum” value ([2]; evolved APCα FPs, Table 4) of the same molecule?
A: 648 nm

Q: And the “Extinction Coefficient” value ([2]; evolved APCα FPs, Table 4)?
A: 260,000 M^−1 cm^−1

Q: And the “Quantum Yield” value ([2]; evolved APCα FPs, Table 4)?
A: 13%

B5: R10-10: evolved APCα FP, SEQ ID NO: 11, with BV (protein)
chain: MKTCEQRVNIATLLTENKKKIVDKASQDLWRRHPDLIAPGGIAFSQRDRALCLRDYGWYLHLITFCLLAGDKGPIESIGLIGIREMYNSLGVPVPAMMESIRCLKEASLSLLDEEDANETAPYFDYIIKAMS
modifications: biliverdin chromophore; smRUFP Variant Polypeptide
Q: What does the source list for B5?
A: fold brighter than R4-1 (Escherichia coli): 8.3 fold; quaternary structure on native gel [3]: homodimer; extinction coefficient (EC) [2]: 200,000 M^−1cm^−1; quantum yield (QY) [2]: 15%; Molecular Brightnes Relative to smURFP ([2]; Table 4): 93%; Emission Maximum ([2]; evolved APCα FPs, Table 4): 672 nm; Excitation Maximum ([2]; evolved APCα FPs, Table 4): 646 nm; Extinction Coefficient ([2]; evolved APCα FPs, Table 4): 200,000 M^−1 cm^−1; Quantum Yield ([2]; evolved APCα FPs, Table 4): 15%

B6: R11-2: evolved APCα FP, SEQ ID NO: 12, with BV (protein)
chain: B5 chain with G82S, D113E
modifications: biliverdin chromophore; smRUFP Variant Polypeptide
Q: With B6 as the molecule, how does the “fluorescence when expressed in E. coli (qualitative)” value (Escherichia coli) read?
A: slightly more fluorescent than R10-10

Q: And the “Molecular Brightnes Relative to smURFP” value ([2]; Table 4)?
A: 70%

Q: What about the “Emission Maximum” value ([2]; evolved APCα FPs, Table 4) of the same molecule?
A: 672 nm

Q: And the “Excitation Maximum” value ([2]; evolved APCα FPs, Table 4)?
A: 642 nm

Q: What about the “Extinction Coefficient” value ([2]; evolved APCα FPs, Table 4) of the same molecule?
A: 190,000 M^−1 cm^−1

Q: And the “Quantum Yield” value ([2]; evolved APCα FPs, Table 4)?
A: 12%
